Measurements from US20080317746A1 (MICROMET, published 2008).
Residue numbers refer to the chain shown, from its start. Where two headings read alike, the source gives them in different places. Each block holds one binder with its values, some of them ahead of it.

Legend:
[1] = target: T1, human interleukin-2 (hIL2) (human, UniProt P60568 21-153); test: FACS on NKL cells loaded with recombinant hIL2
T1 construct: mature; The two home-made supplies carry a C-terminal hexahistidine tag, and the E. coli one also an N-terminal Met; also called recombinant human hIL2; hIL2 antigen

[2] = target: T1, human interleukin-2 (hIL2); test: BiaCore, format not described
[3] = target: T1, human interleukin-2 (hIL2); test: cell-based or functional assay
[4] = target: T1, human interleukin-2 (hIL2); test: cell-based or functional assay; remark: listed apart in the source
[5] = target: T1, human interleukin-2 (hIL2); test: Cell Surface (binding to cell surface-associated hIL2), method not described; Cell Surface, not BiaCore
[6] = target: T2, human IL2 receptor on NKL cells (human, UniProt P01589 22-272; P14784 27-551; P31785 23-369); test: FACS on hIL2-deprived NKL cells without hIL2; fluorescence-labeled goat anti-human IgG detection
T2 construct: whole, on cells; also called hIL2 receptor; IL2 receptor component(s)
T2 sequence (looked up) 1: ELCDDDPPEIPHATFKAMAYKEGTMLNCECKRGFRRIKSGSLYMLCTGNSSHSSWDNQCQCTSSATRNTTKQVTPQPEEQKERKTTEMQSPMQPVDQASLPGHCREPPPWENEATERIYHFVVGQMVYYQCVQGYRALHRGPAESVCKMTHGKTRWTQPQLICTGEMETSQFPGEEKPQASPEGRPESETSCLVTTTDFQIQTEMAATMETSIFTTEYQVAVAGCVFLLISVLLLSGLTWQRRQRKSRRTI
T2 sequence (looked up) 2: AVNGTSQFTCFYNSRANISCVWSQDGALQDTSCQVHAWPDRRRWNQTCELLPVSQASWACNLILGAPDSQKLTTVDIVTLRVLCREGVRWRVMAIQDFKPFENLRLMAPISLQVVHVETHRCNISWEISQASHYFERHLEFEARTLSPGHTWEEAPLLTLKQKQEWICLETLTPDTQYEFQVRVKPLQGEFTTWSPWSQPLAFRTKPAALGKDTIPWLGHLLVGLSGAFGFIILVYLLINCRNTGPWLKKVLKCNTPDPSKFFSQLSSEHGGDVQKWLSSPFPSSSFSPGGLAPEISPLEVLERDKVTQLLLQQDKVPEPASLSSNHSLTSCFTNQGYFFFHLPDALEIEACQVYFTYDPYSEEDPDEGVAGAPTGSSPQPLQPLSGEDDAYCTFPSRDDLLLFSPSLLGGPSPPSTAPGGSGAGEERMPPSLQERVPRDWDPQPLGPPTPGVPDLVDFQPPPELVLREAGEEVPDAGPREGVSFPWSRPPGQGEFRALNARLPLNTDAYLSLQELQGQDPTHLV
T2 sequence (looked up) 3: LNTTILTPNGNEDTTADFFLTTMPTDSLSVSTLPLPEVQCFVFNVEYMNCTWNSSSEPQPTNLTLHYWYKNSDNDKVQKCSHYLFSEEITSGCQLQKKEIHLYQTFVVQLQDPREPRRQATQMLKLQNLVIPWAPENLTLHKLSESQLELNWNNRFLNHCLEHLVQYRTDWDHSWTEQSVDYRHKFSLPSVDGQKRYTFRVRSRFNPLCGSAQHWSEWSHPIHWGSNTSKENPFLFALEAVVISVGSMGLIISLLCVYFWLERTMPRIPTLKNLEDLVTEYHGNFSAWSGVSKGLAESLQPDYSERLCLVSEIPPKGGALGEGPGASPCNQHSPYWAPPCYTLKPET

[7] = target: T3, Proleukin (formulated recombinant hIL2, expressed in E. coli), PEG-biotinylated (human, UniProt P60568 22-153, PEG-biotinylated (site not stated)); test: ELISA: PEG-biotinylated Proleukin on streptavidin plate, 293 cell supernatant antibody, anti-human IgG-HRP, ABTS, absorbance at 405 nm
T3 construct: also called PEG-biotinylated Proleukin; hIL2 antigen

[8] = target: T3, Proleukin (formulated recombinant hIL2, …); test: as above; remark: listed apart in the source
[9] = target: T3, Proleukin (formulated recombinant hIL2, …); test: as above; remark: listed apart in the source

T1 sequence (P60568 21-153): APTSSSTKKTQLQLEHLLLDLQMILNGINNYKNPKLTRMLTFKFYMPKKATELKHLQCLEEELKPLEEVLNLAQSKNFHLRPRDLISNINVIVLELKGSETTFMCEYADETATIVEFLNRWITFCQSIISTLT

binding result [1]: binds
B1: mAb202 (commercially available from R&D Systems) (antibody, V domains shown)
VH: DVRLVESGGGLVKPGGSLKLSCAAYGFTFSSYTLAWVRQTPEKRLEWVAAIDSSSYTYSPDTVRGRFTISRDNAKNTLYLQMSSLKSEDTAMYYCTRDSNWDALDYWGQGTSVIVSS
VL: DIVMTQSQKFMSTSVGDRVSVTCKASQNVGTNVGWYQQKPGQSPKALIYSASFRYSGVPDRFTGSGSGTDFSLTISNVKSEDLAEYFCQQYYTYPYTFGGGTKLEIK
notes: Mouse monoclonal antibody; also called original mAb; parental mAb202

Kd [2]: 0.68 nM
IC50, IL2-dependent proliferation of primary human NK cells (donor shown) [3]: ~0.3 nM
IC50 of IL2-dependent CD124 cell surface expression on CTLL-2 cells [3]: ~0.33 nM
IC50, IFN-gamma production by Human NK Cells [4]: 0.13 nM
IC50, Proliferation of Human Primary NK Cells [4]: 0.1 nM
Kd [5]: 2.5 nM
binding result [6]: no binding
B2: Anti-IL2 (humanized anti-IL2 IgG1 antibody) (antibody, V domains shown)
VH: EVQLVESGGGLVQPGGSLRLSCAASGFTFSSYTLAWVRQAPGKGLEWVAAIDSSSYTYSPDTVRGRFTISRDNAKNSLYLQMNSLRAEDTAVYYCARDSNWDALDYWGQGTTVTVSS
VL: DIQMTQSPSSLSASVGDRVTITCKASQNVGTNVGWYQQKPGKAPKALIYSASFRYSGVPSRFSGSGSGTDFTLTISSLQPEDFATYYCQQYYTYPYTFGGGTKVEIKR
notes: IgG1; Its VL carries KAPKA in framework 2

EC50 (read off the curve) [7]: ~0.1 µg/mL
B3: cLC + hHC (chimeric light chain with humanized heavy chain) (antibody, human IgG1, V domains shown)
VH: B2 VH
VL: B1 VL
notes: Human IgG1 C1, C2, C3 and human Ckappa; Tested as 293 cell supernatant; also called cLH+hHC

EC50 (read off the curve) [8]: ~0.06 µg/mL
B4: MHM + hHC (VL with human framework 2, mouse frameworks 1 and 3) (antibody, human IgG1, V domains shown)
VH: B2 VH
VL: B1 VL with Q42K, S43A, A46L
notes: Human IgG1 and human Ckappa

EC50 (read off the curve) [8]: ~0.06 µg/mL
B5: HMH + hHC (VL with human frameworks 1 and 3, mouse framework 2) (antibody, V domains shown)
VH: B2 VH
VL: DIQMTQSPSSLSASVGDRVTITCKASQNVGTNVGWYQQKPGQSPKALIYSASFRYSGVPSRFSGSGSGTDFTLTISSLQPEDFATYYCQQYYTYPYTFGGGTKLEIK
notes: Human IgG1 and human Ckappa

EC50 (read off the curve) [8]: ~0.06 µg/mL
B6: HMM + hHC (VL with human framework 1, mouse frameworks 2 and 3) (antibody, V domains shown)
VH: B2 VH
VL: B1 VL with V3Q, Q8P, K9S, F10S, M11L, T13A, S20T, V21I
notes: Human IgG1 and human Ckappa

EC50 (read off the curve) [8]: ~0.06 µg/mL
B7: MMH + hHC (VL with human framework 3, mouse frameworks 1 and 2) (antibody, V domains shown)
VH: B2 VH
VL: B5 VL with Q3V, P8Q, S9K, S10F, L11M, A13T, T20S, I21V
notes: Human IgG1 and human Ckappa

EC50 (read off the curve) [7]: ~0.2 µg/mL
B8: hLC + hHC (humanized light chain with humanized heavy chain) (antibody, human IgG1, V domains shown)
VH: B2 VH
VL: B5 VL with Q42K, S43A, A46L, L104V
notes: Human IgG1 C1, C2, C3 and human Ckappa; Tested as 293 cell supernatant; also called hLH+hHC

EC50 (read off the curve) [9]: ~0.05 µg/mL
B9: hLC_KAPKA + hHC (antibody, V domains shown)
VH: B2 VH
VL: B5 VL with Q42K, S43A, L104V
notes: Human IgG1 and human Ckappa
